Test results published in the nanobody polyreactivity screen of Harvey et al. (2022).

Assay: yeast display, Sf9 membrane polyspecificity reagent, FACS + sequencing; frameworks hold sequencing errors
Summary of the method: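 Nanobodies came from a synthetic yeast display library in Saccharomyces cerevisiae BJ5465, induced with galactose for 36–48 hours and stained for 1 hour at 4 °C with 10% biotinylated, detergent-solubilized Sf9 membrane reagent. Cells were enriched on streptavidin microbeads and then FACS-sorted, with low and high (top ~1%) gates set on anti-HA fluorescence for expression and streptavidin fluorescence for reagent binding. Each polyreactivity label reflects the gate a clone came from. Genes were amplified by colony PCR, sequenced by MiSeq 2 × 250 and filtered by CDR length.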

| Sequence | polyreactivity (PSR sort gate) |
| --- | --- |
| QVQLVESGGGLVQAGGSLRLSCAASGRTFAVYTMGWYRQAPGKERELVARIRYSGGNTYYADSVKGRFTISRENAKNTVYLQMNSLKPEDTAVYYCAARSRYRIYASRNFDYWGQGTQVTVSS | high polyreactivity |
| QVQLVESGGGLVQAGGSLRLSCAASGRTFAWYAMGWYIEAPGKERELVAAISSGGSTYYADSVKGRFTISRDNAKNTVYLQMNSLKPEDTAVYYCATRYAIAGWVGYYYWGQCTQVTVSS | low polyreactivity |
| QVQLVESGGGLVQAGGSLRLSCAASGRTFAWYAMGWYRQAPGKERELVAAISNVGSTYYADSVKGRFTISRDNAKNTVYLHMNSLKPEHTAVYYCNADAVSTDGREYWGQGTQVTVSS | low polyreactivity |
| QVQLVESGGGLVQAGGSLRLSCAASGRTFAWYAMGWYRQAPGKERELVAAISWSSDTTYYADSVKGRFTISRDNAKNTVYLQMNSLKPEDTAVYYCAAVFQGYTRKYYYWGQGTQVTVSS | high polyreactivity |
| QVQLVESGGGLVQAGGSLRLSCAASGRTFAWYTMGWYRQAPGKERELVAAISGSGGSTYYADSVKGRFTISRDNAKNTVYLQMNSLKPEDTAVYYCARRVDSYYGHTRYYYWGQGTQVTVSS | high polyreactivity |
| QVQLVESGGGLVQAGGSLRLSCAASGRTFAWYTMGWYRQAPGKERELVAAISGSGGSTYYADSVKGRFTISRDNAKNTVYLQRKSLKPEDTAVYYCARRVHSYYGHTRYYYWGQGTQVTVSS | high polyreactivity |
| QVQLVESGGGLVQAGGSLRLSCAASGRTFAWYTMGWYRQAPGKESELVAAISGSGGSTYYADSVKGRFTISRDNANNTVYLQMNSLKPDDTAVYYCARRVDSYYGHTRYYYWGQGTQVTVSS | high polyreactivity |
| QVQLVESGGGLVQAGGSLRLSCAASGRTFAYNTMGWYRQAPGKERELVAAITSGGNTYYADSVKGRFTISRDNAKNTVYLQMNSLKPEDTAVYYCARYFTARLEGGYWGQGTQVTVSS | high polyreactivity |
| QVQLVESGGGLVQAGGSLRLSCAASGRTFAYNTMGWYRQAPGKERELVARINSGTSTYYADSVKGRFTISRDNAKNTVYLEMNSLKPEDTAVYYCAARGSDYIRWYVGGRYGYWGQGSQVTVSS | low polyreactivity |
| QVQLVESGGGLVQAGGSLRLSCAASGRTFAYYAMGWYRQAPGKERELVAAISGNGGRTYYADSVKGRFTISRDNAKNTVYLQMNSLKPEDTAVYYCNAAVGYYSYSYYTKVGVDYWGQGSQVTVSS | high polyreactivity |
| QVQLVESGGGLVQAGGSLRLSCAASGRTFAYYAMGWYRQAPGKERELVAAITRGGSTYYADSVKGRFTISRDNAKNTVYLQMNSLKPEDTAVYYCATLYTRYDSYLVKGKYGYWGQGTQVIVSS | high polyreactivity |
| QVQLVESGGGLVQAGGSLRLSCAASGRTFCGYTMGWYRQAPGKERELVAAITKRGGSTYYADSVKGRFTISRDNAKNTVYLQMNSLKPEDTAVYYCAKTKTAGTIKYDYWGQGTQVTVSS | high polyreactivity |
| QVQLVESGGGLVQAGGSLRLSCAASGRTFDAYAMGWYRQAPGKERELVATITSGGGTYYADSVKGRFTISRDNEKNTVYLQMNSLKPEDYAVYYCNKRYVVSRKYDYWGQGTQVTVSS | low polyreactivity |
| QVQLVESGGGLVQAGGSLRLSCAASGRTFDDNAMGWYRQAPGKERELVASISSGTSTNYADSVKGRFTISRDNAKNTVYVQMNCLKPEDTAVYYCNAYGPIWYTAVLGVGRYYGWTDYWGQGTQVTVSS | low polyreactivity |
| QVQLVESGGGLVQAGGSLRLSCAASGRTFDDYAKGWYRQAPGKETEFVAAITRSGGGTHYADSVKGRFTISRDNAKNTVYLQMNSLKPEDTAVYYCAARAHGTYVRRRYDYWGQGTQVTVSS | high polyreactivity |
| QVQLVESGGGLVQAGGSLRLSCAASGRTFDFYAMGWYRQAPGKERELVASIDWDGGSTYYADSVKGRFTISRDNAKNTVYLQMNSLKPEDTAVYYCAKDGQKFTSSLYDYWGQGTQVTVSS | low polyreactivity |
| QVQLVESGGGLVQAGGSLRLSCAASGRTFDFYAMGWYRQAPGKERELVASNTFSTGSTTYADSVKGRFTISRDNAKITVYLQMNILKPEDTAVYYCAADGDCWWWSYVDRYDYWGQGTQVTVSS | low polyreactivity |
| QVQLVESGGGLVQAGGSLRLSCAASGRTFDGNTMGWYRQAPGKERELVAAITKRGGSTYYADSVKGRFTFSRDNAKNTVYLQMNSLKPEDTAVYYCAKGQSYSTRLSPYYYWGQGTQVTVSS | high polyreactivity |
| QVQLVESGGGLVQAGGSLRLSCAASGRTFDGNVMGWNRQAPGKERELVAAITASGGRTYYADSVKGRFTISRDNANNTVYIEMNSLNPEDTAVYYCAARIYRVYYVHFAPYYYWGQGTQVTVSS | high polyreactivity |
| QVQLVESGGGLVQAGGSLRLSCAASGRTFDGYAMGWYRQAPGKERELVAAIDGGGSTNYADSVKGRFTISRDNAKNTVYLQMNSLKPEDTAVYYCAADRGSGPGYDYWGQGTQVTVSS | low polyreactivity |
| QVQLVESGGGLVQAGGSLRLSCAASGRTFDGYAMGWYRQAPGKERELVAAIDYDGVSTYYADSVKGRFTISRDNAKNTVYLEMNSLKPEDTAVYYCAVDATDDWWLDYWGQGTQVTVSS | low polyreactivity |
| QVQLVESGGGLVQAGGSLRLSCAASGRTFDHNAMGWYRQAPGKERELVAAITWSGGITDYADSVKRPFTISRDNAKNTVYLQMNSLKPEDTAVWGQGTQVTVSS | low polyreactivity |

| Sequence | polyreactivity (PSR sort gate) |
| --- | --- |
| QVQLVESGGGLVQAGGSLRLSCAASGRTFDHNTMGWYRQAPGTERELVAAISWSGGTTYYADSVKGRFTISRDNAKNTGYLQMNSLKPEDTAVYDCAADRSPGSYGYQYDYWGQGTQVTVSS | low polyreactivity |
| QVQLVESGGGLVQAGGSLRLSCAASGRTFDKYAMGCYRPAPGTQRELVAAINSSGGSTYYSDSVKGRFTISRDNEKNTVYLQMNSLKPEDTAFYYCAALGIGSYRRYSCYDYWGQGPQVTVSS | low polyreactivity |
| QVQLVESGGGLVQAGGSLRLSCAASGRTFDKYAMGWYRQAPGKERELVAAISGSGGRTYYADSVKGRFTISRDNETNTVYLQMNSLKPEDTAVYYCAADTRSYTYYYWGQGTQVTVSS | high polyreactivity |
| QVQLVESGGGLVQAGGSLRLSCAASGRTFDLYDMGWYRQAPGKERELVARISYNGGITYYADSVKGRFTISRDNAKNTVYLQMNSLKPEDTAVYYCDGRYRPHFGPLFEYDYWGQGTQVTVSS | low polyreactivity |
| QVQLVESGGGLVQAGGSLRLSCAASGRTFDPYAMGWYRQAPGKERELVASISRGGSTYADSVKGRFTISRDNAKNTVFLQMNSLKPEDTAVYYCNTSLYTEGDAMDYWGQGTQVTVSS | low polyreactivity |
| QVQLVESGGGLVQAGGSLRLSCAASGRTFDRNARGWYRQAPGKEREVVARITIDGSTNYADSVKGRFTISRDNAKNTVYLQMNSLKPEETAVYYCATDQLSLSWYFRPYDYCYWGQVTQVTVSS | high polyreactivity |
| QVQLVESGGGLVQAGGSLRLSCAASGRTFDRYAMGWARQAPGKERELVATISRSGGSTYYADSVKGRFTISRDNAKNTVYLQMNSLKPEDSAVYYCAARQRTTSDGWRDSWGQGTQVTVSS | high polyreactivity |
| QVQLVESGGGLVQAGGSLRLSCAASGRTFDSNAMGLYRQAPGKERELVAAISYGGGTTHYADSVKGRFTISRDNAKNTVYLQMNSLKPEDTAVYYCAADPEHQWESVTIGEYDYWGQGTQVTVSS | low polyreactivity |
| QVQLVESGGGLVQAGGSLRLSCAASGRTFDSNAMGWYRQAPGKERELVAGISESGGSTYYADSVKGRFTISRDNAKNTVYLQMNSLKPEDTAVYYCAYSGITVYYHRAVDFIVSYDYWGQGTQVTVSS | low polyreactivity |
| QVQLVESGGGLVQAGGSLRLSCAASGRTFDSYTMGWYRQAPGKERELVADITFTGGSTYYADSVKGRFTISRDNAKNTVYLQMNSLKPDDTAVYYCNADREYKWYFRYDYWGQGTQVTVSS | low polyreactivity |
| QVQLVESGGGLVQAGGSLRLSCAASGRTFDTNAMGWYRQAPGKERELVAVITARGGNTSYADSVKGRFTISRENAKNTVSLQMNSLKPEDTAVYYCAARVYRAPWTYEEGNYWGQGTQVTVSS | low polyreactivity |
| QVQLVESGGGLVQAGGSLRLSCAASGRTFDVYAMGWYRQAPGKERELVATISYRSARTYYADSVKGRFTISRDNAKNTVYLQMNSLKPEDTAVYYCAAYFETWHGVGYWGQGTQVTVSS | high polyreactivity |
| QVQLVESGGGLVQAGGSLRLSCAASGRTFDVYAMGWYRQAPGKERELVAVIRGRAGSTYYADSVKGRFTISRDNAKNTVYLQMNSLKPEDTAVYYCAAAKYVRRGLRAWRGDEYDYWGQGTQVTVSS | high polyreactivity |
| QVQLVESGGGLVQAGGSLRLSCAASGRTFDVYAMGWYRQPPGKESELVATISYRSARTYSADSVKGRFTISRDNAKNTVYLQMNSLKPEDTAVYYCAARVGARVSQPRRHGRFNYWGQGTQVTVSS | high polyreactivity |
| QVQLVESGGGLVQAGGSLRLSCAASGRTFDWYVMGWYRQAPGKERELVATITRDGSTNYADSVKGRFTISRDNAKNTVYLQMNSLKPEDTAVYYCAATVPPLVGYDYWGQGTQVTVSS | low polyreactivity |
| QVQLVESGGGLVQAGGSLRLSCAASGRTFEDNAMGWYRQAPGKERELVAAISSDGSTNYADSVKGRFTISRDNAKNTVYLQMNSLKPEDTAVYYCNATVYWPYDWRTSDYWGQGTQVTVSS | low polyreactivity |
| QVQLVESGGGLVQAGGSLRLSCAASGRTFEGYAMGWYRQAPGKERELVAAISGSSGSTYYADSVKGRFTISRDNAKNTVYLQMNSLKPEDTAVYYCNADYDWPGGSDYWGQGTQVTVSS | low polyreactivity |
| QVQLVESGGGLVQAGGSLRLSCAASGRTFEHYSMGWYRQAPGKEREFVAVIDSSDGSTYYADSVKGRFTISRDNAKNTVYLQMNSLKPEDTAVYYCLGGYYYLQYDYWGQGTQVTVSS | low polyreactivity |
| QVQLVESGGGLVQAGGSLRLSCAASGRTFEHYVMGWYRQAPGKERELVAAISNSGDTTFYADSVKGRFTISRDNAKNTVYFQMNSLKPEDTAVYYCNADSYWHWGEWLYAPYDYWGQGTQVTVSS | low polyreactivity |
| QVQLVESGGGLVQAGGSLRLSCAASGRTFEINAMGWYRQAPGKERELVAAITVSGGSTYYADSVKGRFTISRDNAKNTVYLQMNSLKPEDTAVYYCAVEIDYGQGKEVNSWGQGTQVTVSS | low polyreactivity |
| QVQLVESGGGLVQAGGSLRLSCAASGRTFENYAMGWYRQAPGKERELVAAISKSGGSTYYADSVKGRFTISRDNAKNTVYLQMNSLKPEDTAVYYCAARLPGYYGIGDYWGQGTQVTVSS | high polyreactivity |
